Assay results: PMC12647017, “Discovery and optimization of a synthetic small protein domain targeting antibodies” (Frontiers in Bioengineering and Biotechnology, 2025)

Key:
[1] = Solubility / precipitation observed during production, dialysis and purification; format: physicochemical; conditions: lead ligand sequences from WWp5_4 naïve library
Description: Therefore, after expression the soluble fractions were further centrifuged at 42,000 g for 20 min at 4 °C. As the samples were diluted (∼5 mg/mL in 25 mL lysis buffer), the soluble fractions were lyophilized and resuspended in 4 mL of water. The samples were dialyzed (Membranes Spectra Pre-Treated 1 kDa, Carl Roth) to Binding buffer without imidazole (20 mM Sodium Phosphate, 500 mM Sodium Chloride pH 7.4) for 24 h at 16 °C. The samples were quantified by […] (typically ∼6 mg/mL), this solution was diluted 1:2 in Binding buffer (20 mM Sodium Phosphate, 500 mM Sodium Chloride, 20 mM imidazole pH 7.4) and purified in a gravitational flow with 6 mL of resin (IMAC Sepharose 6 Fast Flow (Ni^2+), Cytiva) packed in a PD-10 column. The column was prepared using the indications of the manufacturer. The binding of the protein to the column was maximized by an incubation for 1 h at room temperature in agitation at 40rpm. The resin was washed 4 x column volumes (CV) with binding buffer. The elution as achieved by incubation for 15min with elution buffers. We used a gradient with 3 x CV elution buffer 1 (binding buffer with 100 mM imidazole) and 3 x CV elution buffer 2 (binding buffer with 200 mM imidazole).
The most enriched elutions in WW domains (60%–70% purity) were combined and dialysed against PBS1x (10 mM Na2HPO4, 1.8 mM KH2PO4, 2.7 mM KCl, 137 mM NaCl pH 7.4) with routine changes of buffer up to 48 h at 16 °C. Following the samples were concentrated with a Amicon-Ultra15 3 kDa MWCO (Millipore) with centrifugation conditions 4,900 g, 30 min, 4 °C. The final samples were quantified by BCA assay.
Size Exclusion Chromatography (SEC). The samples were further purified by SEC to achieve 90% purity in a AKTA system (Cytiva). The column Superdex 75 Increase 10/300 GL (29148721, Cytiva) was washed with water and equilibrated 2CV in PBS1x, as described by the manufacturer. As calibrants we prepare a mixture: 2 mg/mL of Bovine Serum Albumin (66 kDa, BP9702-100, FisherScientific), Ovalbumin (42 kDa, A5503-1G, Sigma), Chicken Lysozyme ([…], 62,971–10G-F, Fluka) and hPin1_WW chemically synthesized (5 kDa, produced in ([Dias et al., 2015])) in PBS 1x, this sample was filtered with 0.2 µm PES (514–0073, VWR) and analysed. The operation conditions: flow 0.5 mL/min, 0.05 CV in PBS1x and injection of 250 µL and run for 2 CV with PBS 1x at 16 °C. The same method was used for the WW domain samples. After purifications samples were quantified for total protein by BCA assay, as described previously and used for characterization.

[2] = system: hIgG; experiment: ELISA of soluble fractions of native and mutated WW domains against hIgG; format: binding; conditions: human IgG, soluble fraction, E6 detected with anti-HA-HRP, E6_M2 and Rosetta extract with anti-His-HRP, ABTS
Description: The soluble fraction of 100 mL cultures (100 μL) was used for ELISA against hIgG, as described in ([Dias et al., 2025]). Briefly, the target hIgG was immobilized (1 μg/well) in 0.1 M Sodium Bicarbonate pH 8.6 in Immuno Maxisorp ELISA plates (Thermo Fisher), overnight at 4 °C. In the next day, the unbound hIgG was removed, and the wells washed with PBS1x. To the wells was added the blocking solution – 5% (v/v) Soya Milk in PBS 1x and incubated for 1 h at room temperature. The wells were washed and incubated with 100 µL of soluble fraction (∼0.065 mg/mL total protein) at room temperature for 2 h.
The unbound WW domains were removed, and the wells were washed using 4 times PBS1x-0.05% Tween 20 and 1 time with PBS1x. For detection was used 1:1,000 anti-His-HRP conjugated antibody (MA1-21315-HRP, Invitrogen) in 1% (v/v) Soya Milk in PBS1x and incubated for 1 h at RT, after that the wells were washed with 5x PBS1x. The detection occurred with ABTS (2,2′-azino-bis(3-ethylbenzothiazoline-6-sulfonic acid) ready solution (11684302001, Roche), which was incubated in the dark for 1 h at 37 °C. Finally, the results were analysed in a microplate reader (Tecan) with appropriate filter at Abs405nm.
Figure S6 – Production and signal characterization of mutated versions. A – Tris-Tricine gels after cell lysis of the WW prototype sequence (WWp, band at ~8KDa), mutated WWp5_4 scaffold (WWp5_4_M2, band at ~8 kDa) and mutated E6 (E6_M2, band at ~ 12kDa). Samples were normalized 90µg total protein/lane. M - Precision Plus Protein™ Dual Xtra Prestained, Biorad; SF – soluble fraction; ISF – insoluble fraction. B1, B2, and B3 indicate production batchs in 1L culture, except for WWp B1 – 100 mL, WWp_5_4 B2 – 900 mL. Stained with Simplyblue. […] The detection of the clones was made with anti-His conjugated antibody with HRP and detected with ABTS as substrate.
Figure S7 – Comparison between ELISA signal of E6 versus E6_M2. […] The expression levels were detected by direct coating of the microplate well with the soluble fraction of the extract. […] All were detected with ABTS as substrate.

SMGLPPGWDEYKT RRFKL GKTYYYNH HILS KTSTWTDPRMSS [Clone E6]
solubility observed in production and purification [1]: limited solubility | binding signal relative to negative control (E. coli Rosetta extract) [2]: 1.5 times
